Laboratory results: paper PMC3858281, “Structural Characterisation of the Nuclear Import Receptor Importin Alpha in Complex with the Bipartite NLS of Prp20” (PLoS ONE, 2013)

Target: Mouse IMPαΔIBB (residues 70–529) (mouse, UniProt P52293 70-529)
Assay: crystal structure; complex of IMPαΔIBB and Prp20 NLS (GST tag removed by thrombin) in 20 mM Tris pH 7.8, 125 mM NaCl, 20 mg/mL; crystals in 500 mM sodium citrate pH 6–8, 10 mM DTT; 2.1 Å
Conditions: both partners purified

B1: Prp20 (S. cerevisiae RanGEF) NLS (residues 3–23) (peptide)
chain: KRTVATNGDASGAHRAKKMSK
notes: Prp20 (RanGEF), S. cerevisiae, bipartite NLS, residues 3-23; Only KR4 and RAKKMSK23 are in the final model; also called Prp20 NLS; Prp20NLS
B1: binds.
